For the experiment, the target named is FcγRIIIa (Human) (UniProt P08637). Description: SPR.
Sequence of FcγRIIIa (Human) (P08637 17-208 F176V): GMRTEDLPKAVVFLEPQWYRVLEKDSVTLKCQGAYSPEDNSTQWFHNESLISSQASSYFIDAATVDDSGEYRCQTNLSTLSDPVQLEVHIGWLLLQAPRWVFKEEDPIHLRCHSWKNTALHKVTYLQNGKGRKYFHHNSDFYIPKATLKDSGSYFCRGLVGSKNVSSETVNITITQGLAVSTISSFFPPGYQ

The substance Mogamulizumab registered a Kd of 156 nM.

A word on the Kd: it is the free concentration of one partner at which half of the binding sites on the other are occupied at equilibrium, for simple one-to-one binding.
